Reference: IntAct's records for PubMed 16778766

B1: Estrogen receptor (Mus musculus), P19785 (parent)
chain: MTMTLHTKASGMALLHQIQGNELEPLNRPQLKMPMERALGEVYVDNSKPTVFNYPEGAAYEFNAAAAAAAAASAPVYGQSGIAYGPGSEAAAFSANSLGAFPQLNSVSPSPLMLLHPPPQLSPFLHPHGQQVPYYLENEPSAYAVRDTGPPAFYRSNSDNRRQNGRERLSSSNEKGNMIMESAKETRYCAVCNDYASGYHYGVWSCEGCKAFFKRSIQGHNDYMCPATNQCTIDKNRRKSCQACRLRKCYEVGMMKGGIRKDRRGGRMLKHKRQRDDLEGRNEMGASGDMRAANLWPSPLVIKHTKKNSPALSLTADQMVSALLDAEPPMIYSEYDPSRPFSEASMMGLLTNLADRELVHMINWAKRVPGFGDLNLHDQVHLLECAWLEILMIGLVWRSMEHPGKLLFAPNLLLDRNQGKCVEGMVEIFDMLLATSSRFRMMNLQGEEFVCLKSIILLNSGVYTFLSSTLKSLEEKDHIHRVLDKITDTLIHLMAKAGLTLQQQHRRLAQLLLILSHIRHMSNKGMEHLYNMKCKNVVPLYDLLLEMLDAHRLHAPASRMGVPPEEPSQTQLATTSSTSAHSLQTYYIPPEAEGFPNTI

Variants of: B1
Conditions: with cnot1_human CNOT1, A5YKK6
Sequence of cnot1_human CNOT1, A5YKK6 (A5YKK6 whole entry): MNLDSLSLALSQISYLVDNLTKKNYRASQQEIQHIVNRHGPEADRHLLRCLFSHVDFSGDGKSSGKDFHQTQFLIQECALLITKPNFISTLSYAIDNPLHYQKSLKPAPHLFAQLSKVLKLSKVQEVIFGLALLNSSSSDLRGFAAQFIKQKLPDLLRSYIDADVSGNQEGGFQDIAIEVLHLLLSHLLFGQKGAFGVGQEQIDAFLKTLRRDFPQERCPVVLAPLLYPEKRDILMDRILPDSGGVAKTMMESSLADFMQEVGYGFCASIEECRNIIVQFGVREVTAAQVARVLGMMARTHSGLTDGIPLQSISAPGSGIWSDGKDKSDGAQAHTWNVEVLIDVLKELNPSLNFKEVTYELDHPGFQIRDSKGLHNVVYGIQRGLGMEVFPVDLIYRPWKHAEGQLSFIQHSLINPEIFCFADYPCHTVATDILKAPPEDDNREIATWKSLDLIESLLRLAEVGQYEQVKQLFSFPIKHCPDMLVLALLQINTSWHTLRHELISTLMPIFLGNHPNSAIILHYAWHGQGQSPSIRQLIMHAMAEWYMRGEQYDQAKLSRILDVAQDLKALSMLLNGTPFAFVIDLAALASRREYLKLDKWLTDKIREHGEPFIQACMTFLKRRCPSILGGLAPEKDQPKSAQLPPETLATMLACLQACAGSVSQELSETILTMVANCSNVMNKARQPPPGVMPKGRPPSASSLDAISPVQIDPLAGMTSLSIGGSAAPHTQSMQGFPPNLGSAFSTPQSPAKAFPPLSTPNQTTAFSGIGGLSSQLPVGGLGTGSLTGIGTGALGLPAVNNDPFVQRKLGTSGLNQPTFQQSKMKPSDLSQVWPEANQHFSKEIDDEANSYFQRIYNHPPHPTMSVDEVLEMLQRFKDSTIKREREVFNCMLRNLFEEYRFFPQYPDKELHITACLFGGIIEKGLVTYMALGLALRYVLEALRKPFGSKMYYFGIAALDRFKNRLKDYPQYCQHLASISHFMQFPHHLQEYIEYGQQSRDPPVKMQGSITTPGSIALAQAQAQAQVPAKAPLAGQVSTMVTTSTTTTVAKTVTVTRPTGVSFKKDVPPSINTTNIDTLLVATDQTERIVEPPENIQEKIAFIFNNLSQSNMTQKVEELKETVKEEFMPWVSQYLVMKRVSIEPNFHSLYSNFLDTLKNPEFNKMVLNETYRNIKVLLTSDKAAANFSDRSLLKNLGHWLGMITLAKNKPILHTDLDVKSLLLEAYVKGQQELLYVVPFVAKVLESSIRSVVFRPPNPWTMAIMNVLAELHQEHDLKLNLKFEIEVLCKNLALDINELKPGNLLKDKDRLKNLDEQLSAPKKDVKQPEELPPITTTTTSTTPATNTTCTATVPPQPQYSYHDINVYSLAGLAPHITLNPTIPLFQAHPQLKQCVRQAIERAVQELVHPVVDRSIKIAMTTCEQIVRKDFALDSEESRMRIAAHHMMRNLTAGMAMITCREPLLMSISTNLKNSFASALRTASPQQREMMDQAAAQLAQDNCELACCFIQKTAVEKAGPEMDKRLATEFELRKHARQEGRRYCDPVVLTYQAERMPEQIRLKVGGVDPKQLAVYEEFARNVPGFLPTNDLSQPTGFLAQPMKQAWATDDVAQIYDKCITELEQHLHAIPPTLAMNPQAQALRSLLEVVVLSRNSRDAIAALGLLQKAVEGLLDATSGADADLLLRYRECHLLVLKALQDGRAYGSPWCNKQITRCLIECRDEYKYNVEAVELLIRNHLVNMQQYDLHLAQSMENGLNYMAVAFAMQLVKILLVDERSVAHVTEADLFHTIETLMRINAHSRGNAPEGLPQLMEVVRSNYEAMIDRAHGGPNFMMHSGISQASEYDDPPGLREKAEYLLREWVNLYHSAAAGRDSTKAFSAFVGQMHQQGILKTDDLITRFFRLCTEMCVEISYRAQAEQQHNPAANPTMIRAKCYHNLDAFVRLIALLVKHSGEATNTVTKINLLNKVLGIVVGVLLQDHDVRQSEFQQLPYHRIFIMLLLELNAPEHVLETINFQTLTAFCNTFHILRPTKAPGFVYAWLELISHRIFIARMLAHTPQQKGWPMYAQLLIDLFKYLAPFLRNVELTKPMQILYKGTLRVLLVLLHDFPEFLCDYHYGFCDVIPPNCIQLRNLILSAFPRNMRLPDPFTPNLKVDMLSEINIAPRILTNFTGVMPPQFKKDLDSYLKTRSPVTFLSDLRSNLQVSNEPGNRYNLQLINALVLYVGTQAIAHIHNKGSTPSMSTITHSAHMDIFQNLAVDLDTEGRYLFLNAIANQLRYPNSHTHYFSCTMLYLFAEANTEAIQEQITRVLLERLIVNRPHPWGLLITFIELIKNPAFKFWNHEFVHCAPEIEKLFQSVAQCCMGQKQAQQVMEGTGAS

| Variant | effect of a mutation on the interaction |
| --- | --- |
| MTMTLHTKASGMALLHQIQGNELEPLNRPQLKMPMERALGEVYVDNSKPTVFNYPEGAAYEFNAAAAAAAAASAPVYGQSGIAYGPGSEAAAFSANSLGAFPQLNSVSPSPLMLLHPPPQLSPFLHPHGQQVPYYLENEPSAYAVRDTGPPAFYRSNSDNRRQNGRERLSSSNEKGNMIMESAKETRYCAVCNDYASGYHYGVWSCEGCKAFFKRSIQGHNDYMCPATNQCTIDKNRRKSCQACRLRKCYEVGMMKGGIRKDRRGGRMLKHKRQRDDLEGRNEMGASGDMRAANLWPSPLVIKHTKKNSPALSLTADQMVSALLDAEPPMIYSEYDPSRPFSEASMMGLLTNLADRELVHMINWAKRVPGFGDLNLHDQVHLLECAWLEILMIGLVWRSMEHPGKLLFAPNLLLDRNQGKCVEGMVEIFDMLLATSSRFRMMNLQGEEFVCLKSIILLNSGVYTFLSSTLKSLEEKDHIHRVLDKITDTLIHLMAKAGLTLQQQHRRLAQLLLILSHIRHMSNKGMEHLYNMKCKNVVPLYDLLLEALDAHRLHAPASRMGVPPEEPSQTQLATTSSTSAHSLQTYYIPPEAEGFPNTI [M547A] | disrupting interaction |
| MTMTLHTKASGMALLHQIQGNELEPLNRPQLKMPMERALGEVYVDNSKPTVFNYPEGAAYEFNAAAAAAAAASAPVYGQSGIAYGPGSEAAAFSANSLGAFPQLNSVSPSPLMLLHPPPQLSPFLHPHGQQVPYYLENEPSAYAVRDTGPPAFYRSNSDNRRQNGRERLSSSNEKGNMIMESAKETRYCAVCNDYASGYHYGVWSCEGCKAFFKRSIQGHNDYMCPATNQCTIDKNRRKSCQACRLRKCYEVGMMKGGIRKDRRGGRMLKHKRQRDDLEGRNEMGASGDMRAANLWPSPLVIKHTKKNSPALSLTADQMVSALLDAEPPMIYSEYDPSRPFSEASMMGLLTNLADRELVHMINWAKRVPGFGDLNLHDQVHLLECAWLEILMIGLVWRSMEHPGKLLFAPNLLLDRNQGKCVEGMVEIFDMLLATSSRFRMMNLQGEEFVCLKSIILLNSGVYTFLSSTLKSLEEKDHIHRVLDKITDTLIHLMAKAGLTLQQQHRRLAQLLLILSHIRHMSNKGMEHLYNMKCKNVVPLYDLLLEMADAHRLHAPASRMGVPPEEPSQTQLATTSSTSAHSLQTYYIPPEAEGFPNTI [L548A] | disrupting interaction |
